Paper PMC10786891, “Massively parallel profiling of RNA-targeting CRISPR-Cas13d”
Substitutions are numbered along the chain they refer to. Names may count otherwise.

T1: dEsCas13d (Eubacterium siraeum, UniProt B0MS50 1-954, R295A;H300A;R849A;H854A)
T1 sequence: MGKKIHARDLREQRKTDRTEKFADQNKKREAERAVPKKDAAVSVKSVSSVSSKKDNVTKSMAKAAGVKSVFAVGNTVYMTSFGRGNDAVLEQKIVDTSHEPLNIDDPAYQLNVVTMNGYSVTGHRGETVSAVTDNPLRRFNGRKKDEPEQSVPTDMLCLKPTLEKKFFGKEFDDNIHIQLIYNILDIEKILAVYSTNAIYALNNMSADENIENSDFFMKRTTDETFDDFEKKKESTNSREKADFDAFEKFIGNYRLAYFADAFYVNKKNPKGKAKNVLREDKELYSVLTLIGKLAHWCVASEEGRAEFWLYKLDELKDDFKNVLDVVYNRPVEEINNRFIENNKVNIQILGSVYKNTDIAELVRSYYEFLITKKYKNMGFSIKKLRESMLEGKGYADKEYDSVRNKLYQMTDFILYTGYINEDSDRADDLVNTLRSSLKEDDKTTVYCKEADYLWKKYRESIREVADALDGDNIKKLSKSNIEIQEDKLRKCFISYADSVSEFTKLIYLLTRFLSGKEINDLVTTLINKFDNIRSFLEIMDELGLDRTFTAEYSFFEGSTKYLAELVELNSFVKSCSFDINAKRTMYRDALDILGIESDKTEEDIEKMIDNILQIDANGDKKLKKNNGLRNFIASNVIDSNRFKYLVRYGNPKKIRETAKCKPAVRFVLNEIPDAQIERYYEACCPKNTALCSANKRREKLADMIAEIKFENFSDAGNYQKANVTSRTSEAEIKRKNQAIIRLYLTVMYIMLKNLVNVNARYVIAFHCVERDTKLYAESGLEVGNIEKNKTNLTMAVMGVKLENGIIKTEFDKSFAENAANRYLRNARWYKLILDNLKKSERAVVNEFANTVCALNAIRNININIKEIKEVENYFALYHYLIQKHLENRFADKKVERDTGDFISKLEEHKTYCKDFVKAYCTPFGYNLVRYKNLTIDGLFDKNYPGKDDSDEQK

T2: RfxCas13d (CasRx), nuclease-dead (Ruminococcus flavefaciens, R239A;H244A;R858A;H863A)
T2 chain: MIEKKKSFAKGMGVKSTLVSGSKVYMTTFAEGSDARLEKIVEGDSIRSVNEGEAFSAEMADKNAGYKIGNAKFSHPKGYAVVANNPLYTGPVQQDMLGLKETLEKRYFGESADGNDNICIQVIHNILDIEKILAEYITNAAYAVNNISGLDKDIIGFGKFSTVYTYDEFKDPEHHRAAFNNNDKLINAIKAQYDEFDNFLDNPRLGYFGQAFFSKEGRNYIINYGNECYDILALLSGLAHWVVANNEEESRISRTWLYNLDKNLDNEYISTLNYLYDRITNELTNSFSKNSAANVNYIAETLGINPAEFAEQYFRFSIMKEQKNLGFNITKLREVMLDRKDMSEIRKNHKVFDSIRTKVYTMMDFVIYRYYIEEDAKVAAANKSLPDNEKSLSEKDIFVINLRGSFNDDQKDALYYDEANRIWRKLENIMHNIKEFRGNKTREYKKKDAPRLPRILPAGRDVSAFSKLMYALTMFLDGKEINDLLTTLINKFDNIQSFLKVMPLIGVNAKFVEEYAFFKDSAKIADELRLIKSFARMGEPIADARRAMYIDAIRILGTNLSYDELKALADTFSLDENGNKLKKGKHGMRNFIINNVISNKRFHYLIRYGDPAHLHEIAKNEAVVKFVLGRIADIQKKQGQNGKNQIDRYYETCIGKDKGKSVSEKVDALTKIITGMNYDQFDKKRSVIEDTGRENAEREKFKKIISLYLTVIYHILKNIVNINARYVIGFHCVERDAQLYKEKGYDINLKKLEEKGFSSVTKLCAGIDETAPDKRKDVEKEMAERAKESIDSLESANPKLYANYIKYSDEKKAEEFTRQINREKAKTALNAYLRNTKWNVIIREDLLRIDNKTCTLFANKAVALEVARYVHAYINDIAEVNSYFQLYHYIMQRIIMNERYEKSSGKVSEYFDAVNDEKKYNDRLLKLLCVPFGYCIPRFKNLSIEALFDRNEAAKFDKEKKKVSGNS

T3: EsCas13d, nuclease-dead (Eubacterium siraeum, UniProt B0MS50, R295A;H300A;R849A;H854A)
T3 sequence: T1 sequence

B1: crRNA_Target 1 / MT (5'-GUA PFS) (ssRNA)
RNA 1: CACCCGUGCAAAAAUGCAGGGGUCUAAAACUGAGCGGAUAACCUCUCUAUGG
RNA 2: CCACAUCUACGAAUUCGUACCAUAGAGAGGUUAUCCGCUCACCGAGAUCGGAAGAGCACA
B2: target 1 C22A (60-mer) (mixed)
RNA 1: AACCCCUACCAACUGGUCGGGGUUUGAAACUGAGCGGAUAACCUCUCUAUGG
RNA 2: B1 RNA 2 with C20A
B3: crRNA_Target 1 / U9-flanked target (ssRNA)
RNA 1: B1 RNA 1
RNA 2: UUUUUUUUUCCAUAGAGAGGUUAUCCGCUCAUUUUUUUUU
B4: target 1 MT (60-mer) (mixed)
RNA 1: B2 RNA 1
RNA 2: B1 RNA 2
B5: target 1 C4A (60-mer) (mixed)
RNA 1: B2 RNA 1
RNA 2: B1 RNA 2 with C38A
B6: target 1 G5U (60-mer) (mixed)
RNA 1: B2 RNA 1
RNA 2: B1 RNA 2 with G37U
B7: target 1 C7A (60-mer) (mixed)
RNA 1: B2 RNA 1
RNA 2: B1 RNA 2 with C35A
B8: target 1 A20C (60-mer) (mixed)
RNA 1: B2 RNA 1
RNA 2: B1 RNA 2 with A22C
B9: target 1 G15A (60-mer) (mixed)
RNA 1: B2 RNA 1
RNA 2: B1 RNA 2 with G27A
B10: target 1 C2G (60-mer) (mixed)
RNA 1: B2 RNA 1
RNA 2: B1 RNA 2 with C40G
B11: target 1 U10G (60-mer) (mixed)
RNA 1: B2 RNA 1
RNA 2: B1 RNA 2 with U32G
B12: target 1 A18G (60-mer) (mixed)
RNA 1: B2 RNA 1
RNA 2: B1 RNA 2 with A24G
B13: crRNA-1 (MT) target (mixed)
RNA 1: CACCCGUGCAAAAUUGCAGGGGUCUAAAACUUUUGGUUGACCACAUCUUGAA
RNA 2: UUGGAAAACUUCAAGAUGUGGUCAACCAAAAUGCACAAGC

Assays:
[1] = tested on: dRfxCas13d (Ruminococcus flavefaciens); assay: BLI; conditions: 6 mM Mg2+; BLI: 40 mM Tris-HCl pH 7.5, 150 mM NaCl, 6 mM MgCl2, 1 mM DTT, 0.1% Tween-20, 0.2 mg/ml BSA; RNP 25-100 nM (dRfx 25 nM only); temperature not stated
[2] = target: T1, dEsCas13d; assay: BLI; 6 mM Mg2+; BLI: 40 mM Tris-HCl pH 7.5, 150 mM NaCl, 6 mM MgCl2, 1 mM DTT, 0.1% Tween-20, 0.2 mg/ml BSA; RNP 25-100 nM (dRfx 25 nM only); temperature not stated; conditions: protein: recombinant, tags: 6xHis-TwinStrep-SUMO, cleaved, 22 nt crRNA-target match
[3] = target: T2, RfxCas13d (CasRx), nuclease-dead; assay: BLI; crRNA (strand 1, pre-loaded); Mg2+; 40 mM Tris-HCl pH 7.5, 150 mM NaCl, 6 mM MgCl2, 1 mM DTT, 0.1% Tween-20, 0.2 mg/ml BSA; temperature not stated; conditions: tags: His6-TwinStrep-SUMO cleaved; label: 3' biotin on strand 2
[4] = target: T3, EsCas13d, nuclease-dead; assay: as above; conditions: tags: His6-TwinStrep-SUMO cleaved; label: 3' biotin on strand 2
[5] = target: T3, EsCas13d, nuclease-dead; assay: as above; conditions: tags: His6-TwinStrep-SUMO cleaved; label: 3' biotin on strand 2; remark: listed apart in the source

Row | Molecule | Kd [3] [nM] | other results
1 | AACCCCUACCAACUGGUCGGGGUUUGAAACUGAGCGGAUAACCUCUCUAUGG / CCACAUCUACGAAUUCGUACCAUAGAGAGGUUAUCCGAUCACCGAGAUCGGAAGAGCACA [Rfx crRNA_Target 1 / C4A] |  | Kd [1]: 0.132 nM
2 | B1 |  | Kd ([2]; label: 3' biotin on target): 3.1 ± 0.018 nM
3 | B2 | ~0.291 | 
4 | B3 |  | Kd [2]: 1.6 ± 0.024 nM
5 | B4 | ~0.104 | 
6 | B5 | ~0.132 | 
7 | B6 | ~1.12 | 
8 | B7 | ~0.175 | 
9 | B8 | ~0.556 | 
10 | B9 | ~0.119 | 
11 | B10 | ~0.109 | 
12 | B11 | ~0.271 | 
13 | B12 | ~0.886 | 
14 | B13 |  | koff [4]: 0.00038 s⁻¹; kon [4]: 96000 M⁻¹ s⁻¹; Kd [5]: 4 nM
